Values quoted from earlier work, collected in article PMC3589724 (Scientific Reports, 2013).

B1: S41A Nm mutant: Nm point mutant S41A (literature) (protein, UniProt P06837 1-227, looked up, variant S41A)
Neuromodulin: MLCCMRRTKQVEKNDEDQKIEQDGVKPEDKAHKAATKIQAAFRGHITRKKLKGEKKGDAPAAEAEAKEKDDAPVADGVEKKEGDGSATTDAAPATSPKAEEPSKAGDAPSEEKKGEGDAAPSEEKAGSAETESAAKATTDNSPSSKAEDGPAKEEPKQADVPAAVTDAAATTPAAEDAATKAAQPPTETAESSQAEEEKDAVDEAKPKESARQDEGKEDPEADQEHA
B2: Phe-to-Trp substitution: Nm with Phe-to-Trp substitution at Phe42 (literature) (protein, UniProt P06837 1-227, looked up, variant F42W)
Neuromodulin: MLCCMRRTKQVEKNDEDQKIEQDGVKPEDKAHKAATKIQASWRGHITRKKLKGEKKGDAPAAEAEAKEKDDAPVADGVEKKEGDGSATTDAAPATSPKAEEPSKAGDAPSEEKKGEGDAAPSEEKAGSAETESAAKATTDNSPSSKAEDGPAKEEPKQADVPAAVTDAAATTPAAEDAATKAAQPPTETAESSQAEEEKDAVDEAKPKESARQDEGKEDPEADQEHA

Key:
[1] = test system: PC12B cells
[2] = test system: CaM; details: in vitro, PC12B cells
[3] = test system: CaM; details: position Phe42

| Molecule | association of Nm with the membrane skeleton [1] | Ca^2+ sensitivity of interaction with CaM [2] | increase in Nm-CaM affinity on Phe-to-Trp substitution [3] [fold] |
| --- | --- | --- | --- |
| B1 | inhibiting the association of Nm with the membrane skeleton of PC12B cells | insensitive to Ca^2+ concentrations in vitro | – |
| B2 | – | – | 10 |
